# ± gives the uncertainty stated by the source.
# Test: abundance fitness (aPCA) (normalised: wild type 0, dead -1); higher = more abundant; growth selection in yeast, the domain comes from the species named
# Details: Homo sapiens
row,Substance,abundance fitness
1,"BAG family molecular chaperone regulator 3 S44N, O95817",-0.035 ± 0.25
2,"BAG family molecular chaperone regulator 3 S44Q, O95817",-0.44 ± 0.29
3,"BAG family molecular chaperone regulator 3 S44R, O95817",-0.335 ± 0.08
4,"BAG family molecular chaperone regulator 3 S44T, O95817",0.209 ± 0.11
5,"BAG family molecular chaperone regulator 3 S44W, O95817",-0.86 ± 0.17
6,"BAG family molecular chaperone regulator 3 S44Y, O95817",-0.485 ± 0.39
7,"BAG family molecular chaperone regulator 3 S56A, O95817",-0.146 ± 0.12
8,"BAG family molecular chaperone regulator 3 S56C, O95817",-0.13 ± 0.18
9,"BAG family molecular chaperone regulator 3 S56E, O95817",-0.24 ± 0.25
10,"BAG family molecular chaperone regulator 3 S56F, O95817",-0.205 ± 0.13
11,"BAG family molecular chaperone regulator 3 S56G, O95817",-0.011 ± 0.063
12,"BAG family molecular chaperone regulator 3 S56H, O95817",-0.411 ± 0.37
13,"BAG family molecular chaperone regulator 3 S56I, O95817",0.304 ± 0.1
14,"BAG family molecular chaperone regulator 3 S56K, O95817",-0.136 ± 0.29
15,"BAG family molecular chaperone regulator 3 S56L, O95817",-0.125 ± 0.14
16,"BAG family molecular chaperone regulator 3 S56M, O95817",0.083 ± 0.12
17,"BAG family molecular chaperone regulator 3 S56N, O95817",0.103 ± 0.19
18,"BAG family molecular chaperone regulator 3 S56P, O95817",-0.572 ± 0.27
19,"BAG family molecular chaperone regulator 3 S56R, O95817",0.007 ± 0.063
20,"BAG family molecular chaperone regulator 3 S56T, O95817",0.208 ± 0.16
21,"BAG family molecular chaperone regulator 3 S56V, O95817",0.08 ± 0.1
22,"BAG family molecular chaperone regulator 3 S56W, O95817",-0.473 ± 0.13
23,"BAG family molecular chaperone regulator 3 S56Y, O95817",0.376 ± 0.3

row,Substance,abundance fitness
1,"BAG family molecular chaperone regulator 3 T34A, O95817",0.131 ± 0.12
2,"BAG family molecular chaperone regulator 3 T34C, O95817",-0.073 ± 0.13
3,"BAG family molecular chaperone regulator 3 T34E, O95817",-0.183 ± 0.19
4,"BAG family molecular chaperone regulator 3 T34G, O95817",0.064 ± 0.087
5,"BAG family molecular chaperone regulator 3 T34H, O95817",-0.495 ± 0.48
6,"BAG family molecular chaperone regulator 3 T34I, O95817",0.028 ± 0.2
7,"BAG family molecular chaperone regulator 3 T34K, O95817",0.244 ± 0.23
8,"BAG family molecular chaperone regulator 3 T34L, O95817",-0.568 ± 0.084
9,"BAG family molecular chaperone regulator 3 T34M, O95817",0.01 ± 0.23
10,"BAG family molecular chaperone regulator 3 T34N, O95817",0.336 ± 0.26
11,"BAG family molecular chaperone regulator 3 T34P, O95817",-0.688 ± 0.14
12,"BAG family molecular chaperone regulator 3 T34Q, O95817",-0.148 ± 0.1
13,"BAG family molecular chaperone regulator 3 T34R, O95817",-0.391 ± 0.12
14,"BAG family molecular chaperone regulator 3 T34S, O95817",0.579 ± 0.089
15,"BAG family molecular chaperone regulator 3 T34V, O95817",0.011 ± 0.17
16,"BAG family molecular chaperone regulator 3 T34W, O95817",-0.179 ± 0.083
17,"BAG family molecular chaperone regulator 3 T46A, O95817",-0.687 ± 0.32
18,"BAG family molecular chaperone regulator 3 T46C, O95817",-0.312 ± 0.086
19,"BAG family molecular chaperone regulator 3 T46G, O95817",-0.65 ± 0.075
20,"BAG family molecular chaperone regulator 3 T46H, O95817",-0.571 ± 0.4
21,"BAG family molecular chaperone regulator 3 T46I, O95817",-0.285 ± 0.21
22,"BAG family molecular chaperone regulator 3 T46K, O95817",-0.435 ± 0.33
23,"BAG family molecular chaperone regulator 3 T46L, O95817",-0.53 ± 0.12

row,Substance,abundance fitness
1,"BAG family molecular chaperone regulator 3 T46P, O95817",-0.752 ± 0.32
2,"BAG family molecular chaperone regulator 3 T46Q, O95817",-0.444 ± 0.14
3,"BAG family molecular chaperone regulator 3 T46R, O95817",-0.225 ± 0.11
4,"BAG family molecular chaperone regulator 3 T46S, O95817",-0.183 ± 0.12
5,"BAG family molecular chaperone regulator 3 T46V, O95817",-0.531 ± 0.14
6,"BAG family molecular chaperone regulator 3 T46Y, O95817",-0.358 ± 0.33
7,"BAG family molecular chaperone regulator 3 T47A, O95817",-0.613 ± 0.17
8,"BAG family molecular chaperone regulator 3 T47C, O95817",-0.227 ± 0.27
9,"BAG family molecular chaperone regulator 3 T47D, O95817",-0.679 ± 0.42
10,"BAG family molecular chaperone regulator 3 T47E, O95817",-0.573 ± 0.15
11,"BAG family molecular chaperone regulator 3 T47G, O95817",-0.796 ± 0.14
12,"BAG family molecular chaperone regulator 3 T47H, O95817",-0.736 ± 0.3
13,"BAG family molecular chaperone regulator 3 T47I, O95817",-0.468 ± 0.23
14,"BAG family molecular chaperone regulator 3 T47L, O95817",-0.613 ± 0.28
15,"BAG family molecular chaperone regulator 3 T47M, O95817",-0.564 ± 0.24
16,"BAG family molecular chaperone regulator 3 T47N, O95817",-0.53 ± 0.2
17,"BAG family molecular chaperone regulator 3 T47Q, O95817",-0.741 ± 0.14
18,"BAG family molecular chaperone regulator 3 T47R, O95817",-0.728 ± 0.13
19,"BAG family molecular chaperone regulator 3 T47V, O95817",-0.302 ± 0.073
20,"BAG family molecular chaperone regulator 3 T48I, O95817",-0.354 ± 0.14
21,"BAG family molecular chaperone regulator 3 V12A, O95817",-0.03 ± 0.12
22,"BAG family molecular chaperone regulator 3 V12D, O95817",0.092 ± 0.16
23,"BAG family molecular chaperone regulator 3 V12E, O95817",-0.594 ± 0.26

row,Substance,abundance fitness
1,"BAG family molecular chaperone regulator 3 V12F, O95817",0.051 ± 0.19
2,"BAG family molecular chaperone regulator 3 V12G, O95817",-0.443 ± 0.069
3,"BAG family molecular chaperone regulator 3 V12H, O95817",-0.48 ± 0.33
4,"BAG family molecular chaperone regulator 3 V12I, O95817",0.446 ± 0.11
5,"BAG family molecular chaperone regulator 3 V12L, O95817",0.208 ± 0.066
6,"BAG family molecular chaperone regulator 3 V12M, O95817",-0.393 ± 0.4
7,"BAG family molecular chaperone regulator 3 V12N, O95817",0.139 ± 0.15
8,"BAG family molecular chaperone regulator 3 V12Q, O95817",0.065 ± 0.16
9,"BAG family molecular chaperone regulator 3 V12R, O95817",-0.594 ± 0.21
10,"BAG family molecular chaperone regulator 3 V12S, O95817",-0.14 ± 0.15
11,"BAG family molecular chaperone regulator 3 V12T, O95817",-0.52 ± 0.43
12,"BAG family molecular chaperone regulator 3 V12W, O95817",-0.571 ± 0.32
13,"BAG family molecular chaperone regulator 3 V12Y, O95817",0.199 ± 0.12
14,"BAG family molecular chaperone regulator 3 V40A, O95817",-0.556 ± 0.17
15,"BAG family molecular chaperone regulator 3 V40C, O95817",-0.269 ± 0.13
16,"BAG family molecular chaperone regulator 3 V40D, O95817",-0.808 ± 0.42
17,"BAG family molecular chaperone regulator 3 V40E, O95817",-0.661 ± 0.18
18,"BAG family molecular chaperone regulator 3 V40F, O95817",-0.533 ± 0.4
19,"BAG family molecular chaperone regulator 3 V40G, O95817",-0.541 ± 0.087
20,"BAG family molecular chaperone regulator 3 V40H, O95817",-0.082 ± 0.17
21,"BAG family molecular chaperone regulator 3 V40I, O95817",-0.084 ± 0.069
22,"BAG family molecular chaperone regulator 3 V40K, O95817",-0.64 ± 0.098
